Reference: patent US20240400657A1 (MorphoSys, published 2024)
Numbering of substitutions follows the chain as printed.

T1: C5aR expressed on purified human neutrophils (human, UniProt P21730 1-350)
T1 sequence (looked up): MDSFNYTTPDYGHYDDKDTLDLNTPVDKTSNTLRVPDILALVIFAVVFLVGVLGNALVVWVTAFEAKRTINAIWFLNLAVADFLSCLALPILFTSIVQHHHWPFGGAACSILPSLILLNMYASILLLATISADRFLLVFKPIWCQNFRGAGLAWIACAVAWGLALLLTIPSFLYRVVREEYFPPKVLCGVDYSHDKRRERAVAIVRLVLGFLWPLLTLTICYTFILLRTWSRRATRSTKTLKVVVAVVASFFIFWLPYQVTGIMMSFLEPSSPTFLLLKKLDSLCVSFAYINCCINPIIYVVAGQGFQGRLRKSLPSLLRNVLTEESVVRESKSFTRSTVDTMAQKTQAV

T2: C5aR expressed on purified cynomolgus neutrophils (cynomolgus monkey (Macaca fascicularis))
T2 construct: Endogenous receptor on neutrophils from whole blood of three animals; also called cynomolgus C5aR expressed endogenously
T2 chain: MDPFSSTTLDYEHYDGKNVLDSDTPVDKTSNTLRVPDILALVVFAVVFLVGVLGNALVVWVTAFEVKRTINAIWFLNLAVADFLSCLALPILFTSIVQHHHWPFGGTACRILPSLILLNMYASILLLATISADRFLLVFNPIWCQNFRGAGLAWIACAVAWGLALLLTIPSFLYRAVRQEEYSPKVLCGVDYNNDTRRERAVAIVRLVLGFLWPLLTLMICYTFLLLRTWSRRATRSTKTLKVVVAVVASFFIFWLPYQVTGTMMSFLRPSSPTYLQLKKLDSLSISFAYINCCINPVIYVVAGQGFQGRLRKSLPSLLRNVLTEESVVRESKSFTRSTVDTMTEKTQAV

T3: human C5aR_NT-bio peptide (human, biotin tag (position not given))
T3 construct: Chemically synthesized linear peptide (Genscript); also called human C5aR N-terminal peptide; human C5aR peptide
T3 peptide: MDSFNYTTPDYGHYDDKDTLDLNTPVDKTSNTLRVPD

B1: MAB #2 (antibody, human IgG1, lambda)
heavy: EVQLVESGGGLVKPGGSLRLSCAASGFTFSSYAMHWVRQAPGKGLEWVGRIKSVAQGGTTDYAAHVKGRFTISRDDSKNTLYLQMNSLKTEDTAVYYCARVSHSTFDVWGQGTLVTVSSASTKGPSVFPLAPSSKSTSGGTAALGCLVKDYFPEPVTVSWNSGALTSGVHTFPAVLQSSGLYSLSSVVTVPSSSLGTQTYICNVNHKPSNTKVDKRVEPKSCDKTHTCPPCPAPEAEGAPSVFLFPPKPKDTLMISRTPEVTCVVVDVSHEDPEVKFNWYVDGVEVHNAKTKPREEQYNSTYRVVSVLTVLHQDWLNGKEYKCKVSNKALPSSIEKTISKAKGQPREPQVYTLPPSREEMTKNQVSLTCLVKGFYPSDIAVEWESNGQPENNYKTTPPVLDSDGSFFLYSKLTVDKSRWQQGNVFSCSVMHEALHNHYTQKSLSLSPGK
light: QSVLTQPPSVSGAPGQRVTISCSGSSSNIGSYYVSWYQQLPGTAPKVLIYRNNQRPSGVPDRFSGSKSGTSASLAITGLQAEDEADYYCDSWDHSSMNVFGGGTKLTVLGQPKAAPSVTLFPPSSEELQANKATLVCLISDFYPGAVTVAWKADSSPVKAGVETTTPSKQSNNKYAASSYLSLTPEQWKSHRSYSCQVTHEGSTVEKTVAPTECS
notes: lambda 1 light chain
B2: MAB #1 (antibody, human IgG1, lambda)
heavy: B1 heavy with V54K, H103F
light: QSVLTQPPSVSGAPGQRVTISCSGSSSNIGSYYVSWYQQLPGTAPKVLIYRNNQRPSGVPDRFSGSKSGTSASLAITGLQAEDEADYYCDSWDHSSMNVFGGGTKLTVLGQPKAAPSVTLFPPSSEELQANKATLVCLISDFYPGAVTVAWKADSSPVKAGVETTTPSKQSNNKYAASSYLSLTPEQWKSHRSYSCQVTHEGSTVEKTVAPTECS
notes: lambda 1 light chain, VH3-15 framework

Columns and labels:
[1] = target: T1, C5aR expressed on purified human …; test: cell-based or functional assay
[2] = target: T2, C5aR expressed on purified cynomolgus …; test: FACS on purified cynomolgus neutrophils, IgG titration
Experimental: Neutrophils were purified from EDTA-whole blood samples using a MACSexpress® Neutrophil Isolation Cocktail from Miltenyi Biotec. Briefly, using this kit, cells are isolated using magnetic labeling and negative magnetic separation. […] Measurements were done at the FACS Array device. FACS data were evaluated using FlowJo™, entered into GraphPad® Prism (v4.0) and fitted to the sigmoidal dose-response curve using non-linear regression to calculate the EC50.

[3] = target: rat transferrin (rat, UniProt P12346 20-698); test: Octet based binding assay
Chain of rat transferrin (P12346 20-698 limits assumed): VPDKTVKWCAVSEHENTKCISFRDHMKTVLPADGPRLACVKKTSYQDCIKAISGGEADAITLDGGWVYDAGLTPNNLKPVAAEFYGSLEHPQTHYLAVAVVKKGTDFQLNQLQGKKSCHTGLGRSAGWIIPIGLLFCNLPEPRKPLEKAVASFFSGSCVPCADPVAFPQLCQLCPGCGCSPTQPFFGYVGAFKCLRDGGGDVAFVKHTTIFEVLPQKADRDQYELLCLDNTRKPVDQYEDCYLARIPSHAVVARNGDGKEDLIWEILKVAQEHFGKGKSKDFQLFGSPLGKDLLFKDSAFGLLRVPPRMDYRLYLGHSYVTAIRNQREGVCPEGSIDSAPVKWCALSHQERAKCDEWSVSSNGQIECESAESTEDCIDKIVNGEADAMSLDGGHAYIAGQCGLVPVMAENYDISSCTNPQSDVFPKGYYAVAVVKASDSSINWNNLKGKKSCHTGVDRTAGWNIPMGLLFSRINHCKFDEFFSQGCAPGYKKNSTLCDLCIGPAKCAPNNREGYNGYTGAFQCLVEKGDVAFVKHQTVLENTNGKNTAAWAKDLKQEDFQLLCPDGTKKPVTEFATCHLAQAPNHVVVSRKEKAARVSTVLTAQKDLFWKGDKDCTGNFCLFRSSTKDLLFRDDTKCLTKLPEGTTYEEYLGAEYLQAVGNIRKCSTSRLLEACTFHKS

[4] = target: cynomolgus transferrin (cynomolgus, UniProt A0A2K5UXZ0 20-695); test: Octet based binding assay
[5] = target: T4, full-length human C5L2 expressed on CHO Flp-In cells (human, UniProt Q9P296 1-337); test: FACS, CHO Flp-In cells expressing human C5L2, single IgG concentration
T4 construct: also called C5a anaphylatoxin chemotactic receptor 2
T4 sequence (Q9P296 whole entry): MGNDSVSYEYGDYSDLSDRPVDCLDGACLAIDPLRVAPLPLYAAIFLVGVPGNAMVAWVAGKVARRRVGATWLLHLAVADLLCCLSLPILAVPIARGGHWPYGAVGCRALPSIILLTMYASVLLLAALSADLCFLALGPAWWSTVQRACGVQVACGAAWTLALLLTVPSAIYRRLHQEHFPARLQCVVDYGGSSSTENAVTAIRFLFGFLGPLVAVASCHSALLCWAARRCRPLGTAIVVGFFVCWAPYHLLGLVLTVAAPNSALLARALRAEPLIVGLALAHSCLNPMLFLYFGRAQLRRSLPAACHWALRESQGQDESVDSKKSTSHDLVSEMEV

[6] = target: Ovalbumin; test: Protein Panel Profiling (3P), MSD ECL, coated antigen, IgG 10 nM
Experimental: (§1) 32 different proteins and controls were coated on two 384-well MSD standard plates at a concentration of 1.0 μg/mL at 4° C. over night. The coating solution was discarded and plates were blocked with 50 μL 3% (w/v) BSA in PBS for one hour at RT on a microtiter plate shaker (˜500 rpm) followed by three washing steps with 50 μL washing buffer (PBS with 0.05% (v/v) Tween 20). IgG samples were diluted to 100 nM and 10 nM in assay buffer (PBS with 0.5% (w/v) BSA, 0.05% (v/v) Tween 20). As controls, isotype control antibody MOR03207 (IgG1f_AEASS) and assay buffer were used. Samples and controls were added at 30 μL/well and incubated for three hours at RT on a microtiter plate shaker. The plates were washed three times and 30 μL detection antibody (ECL-labeled anti-human Fab) were added per well and incubated for one hour on a microtiter plate shaker (˜500 rpm). After washing the MSD plate and adding 35 μL/well MSD Read Buffer T with surfactant, electro-chemiluminescence signals were detected using a SECTOR® Imager S600 instrument (Meso Scale Diagnostics).
(§2) For evaluation, binding signals of the antibody sample to a certain protein were divided by the respective binding signals of the reference antibody MOR03207 resulting in a binding ratio (BR). The cumulative binding ratio (CBR) of all proteins except the controls (25 in total) was then calculated: CBR up to 150 indicates an IgG without detectable unspecific binding. Values above 150 indicates an IgG with increased unspecific binding compared to the reference antibody MOR03207.

[7] = target: T5, Protein A; test: as above
T5 construct: control of the 3P panel
Experimental: as §1, §2

[8] = target: bovine transferrin (bovine, UniProt Q29443 20-704); test: as above
Chain of bovine transferrin (Q29443 20-704 limits assumed): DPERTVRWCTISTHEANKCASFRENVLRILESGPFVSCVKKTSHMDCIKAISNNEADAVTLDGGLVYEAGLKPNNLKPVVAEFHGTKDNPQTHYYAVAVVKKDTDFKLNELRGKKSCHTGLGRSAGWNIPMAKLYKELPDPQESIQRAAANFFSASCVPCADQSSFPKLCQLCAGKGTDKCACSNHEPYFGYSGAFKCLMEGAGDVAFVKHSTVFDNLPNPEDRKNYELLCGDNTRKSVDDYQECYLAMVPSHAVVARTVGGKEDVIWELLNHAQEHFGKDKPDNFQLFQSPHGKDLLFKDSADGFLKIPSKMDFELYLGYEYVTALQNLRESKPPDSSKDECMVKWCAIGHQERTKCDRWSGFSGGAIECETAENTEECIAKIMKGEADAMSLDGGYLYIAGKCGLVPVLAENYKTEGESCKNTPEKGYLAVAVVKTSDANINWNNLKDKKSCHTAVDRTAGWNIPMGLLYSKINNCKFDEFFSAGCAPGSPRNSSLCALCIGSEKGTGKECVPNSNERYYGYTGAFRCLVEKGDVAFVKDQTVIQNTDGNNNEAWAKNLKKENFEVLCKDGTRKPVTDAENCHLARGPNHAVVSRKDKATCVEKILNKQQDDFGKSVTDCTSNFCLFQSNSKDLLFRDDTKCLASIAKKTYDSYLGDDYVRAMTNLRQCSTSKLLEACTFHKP
Experimental: as §1, §2

[9] = target: RNase B; test: as above
Chain of RNase B (P61823 27-150): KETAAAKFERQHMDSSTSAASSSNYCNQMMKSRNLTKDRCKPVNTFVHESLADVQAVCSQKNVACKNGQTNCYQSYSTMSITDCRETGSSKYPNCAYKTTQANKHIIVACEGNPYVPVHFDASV
Experimental: as §1, §2

[10] = target: Fibrinogen (b) (bovine); test: as above
Chain of Fibrinogen (b) (bovine) (P02672 20-615, chain 1 of 3): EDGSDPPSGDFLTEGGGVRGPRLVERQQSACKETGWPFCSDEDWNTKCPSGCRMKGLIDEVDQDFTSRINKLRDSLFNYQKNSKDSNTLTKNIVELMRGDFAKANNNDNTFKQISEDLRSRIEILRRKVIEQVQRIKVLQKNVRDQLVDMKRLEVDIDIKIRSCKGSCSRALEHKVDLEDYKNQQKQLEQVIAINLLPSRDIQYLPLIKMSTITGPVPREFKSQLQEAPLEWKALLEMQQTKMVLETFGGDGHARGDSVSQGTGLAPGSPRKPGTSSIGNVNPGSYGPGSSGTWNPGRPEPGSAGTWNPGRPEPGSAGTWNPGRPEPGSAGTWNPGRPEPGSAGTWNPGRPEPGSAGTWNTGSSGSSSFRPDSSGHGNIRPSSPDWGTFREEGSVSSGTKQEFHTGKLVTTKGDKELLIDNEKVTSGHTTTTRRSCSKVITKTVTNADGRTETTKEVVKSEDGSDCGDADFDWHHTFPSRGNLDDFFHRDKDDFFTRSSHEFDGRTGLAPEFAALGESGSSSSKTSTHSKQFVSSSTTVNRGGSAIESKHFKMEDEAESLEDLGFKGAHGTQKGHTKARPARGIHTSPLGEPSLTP
Chain of Fibrinogen (b) (bovine) (P02676 whole entry, chain 2 of 3, further chain): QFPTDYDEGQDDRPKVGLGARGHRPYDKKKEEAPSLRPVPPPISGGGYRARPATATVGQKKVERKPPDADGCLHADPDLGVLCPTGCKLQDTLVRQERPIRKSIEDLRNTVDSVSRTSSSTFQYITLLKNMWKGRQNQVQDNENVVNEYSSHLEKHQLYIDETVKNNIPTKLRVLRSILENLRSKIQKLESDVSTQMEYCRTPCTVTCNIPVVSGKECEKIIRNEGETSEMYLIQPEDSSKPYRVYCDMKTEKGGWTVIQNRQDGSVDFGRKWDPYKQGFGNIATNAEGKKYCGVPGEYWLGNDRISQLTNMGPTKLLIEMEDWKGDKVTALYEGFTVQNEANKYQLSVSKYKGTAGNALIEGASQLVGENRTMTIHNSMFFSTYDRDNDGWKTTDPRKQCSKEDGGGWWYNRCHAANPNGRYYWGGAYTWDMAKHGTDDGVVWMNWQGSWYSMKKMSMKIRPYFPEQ
Chain of Fibrinogen (b) (bovine) (P12799 25-444, chain 3 of 3, further chain): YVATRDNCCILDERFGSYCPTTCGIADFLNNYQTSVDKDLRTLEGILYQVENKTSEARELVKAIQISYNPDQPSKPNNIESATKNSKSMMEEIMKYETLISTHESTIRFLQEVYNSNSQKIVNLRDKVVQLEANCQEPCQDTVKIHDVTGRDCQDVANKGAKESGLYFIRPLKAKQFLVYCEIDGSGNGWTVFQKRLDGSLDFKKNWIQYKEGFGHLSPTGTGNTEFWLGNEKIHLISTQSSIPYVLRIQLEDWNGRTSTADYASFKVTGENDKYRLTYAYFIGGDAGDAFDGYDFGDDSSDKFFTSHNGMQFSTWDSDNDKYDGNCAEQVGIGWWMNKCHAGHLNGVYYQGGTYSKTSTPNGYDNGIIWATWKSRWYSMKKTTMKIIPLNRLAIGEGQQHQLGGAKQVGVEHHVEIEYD
Experimental: as §1, §2

[11] = target: GFP; test: as above
Experimental: as §1, §2

[12] = target: Antitrypsin; test: as above
Experimental: as §1, §2

[13] = target: Amyloglycosidase; test: as above
Experimental: as §1, §2

[14] = target: Myoglobin; test: as above
Experimental: as §1, §2

[15] = target: T6, anti-human Fab (Dianova); test: as above
T6 construct: control of the 3P panel; it captures human IgG as such, so a ratio of 1 means a signal equal to that of MOR03207
Experimental: as §1, §2

[16] = target: T3, human C5aR_NT-bio peptide; test: as above
Experimental: as §1, §2

[17] = target: T7, Hemoglobin (h) (human); test: as above
T7 construct: '(h)' on the sheet read as human
T7 sequence (P69905 2-142, chain 1 of 2): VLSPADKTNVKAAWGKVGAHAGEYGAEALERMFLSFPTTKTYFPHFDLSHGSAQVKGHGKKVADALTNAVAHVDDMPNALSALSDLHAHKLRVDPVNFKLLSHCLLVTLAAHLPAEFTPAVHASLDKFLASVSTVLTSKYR
T7 sequence (P68871 2-147, chain 2 of 2, further chain): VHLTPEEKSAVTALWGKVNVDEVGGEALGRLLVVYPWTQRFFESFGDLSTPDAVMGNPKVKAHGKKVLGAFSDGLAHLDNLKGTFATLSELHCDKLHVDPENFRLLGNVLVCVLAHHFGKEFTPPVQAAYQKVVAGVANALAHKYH
Experimental: as §1, §2

[18] = target: Lysozyme; test: as above
Chain of Lysozyme (P00698 19-147): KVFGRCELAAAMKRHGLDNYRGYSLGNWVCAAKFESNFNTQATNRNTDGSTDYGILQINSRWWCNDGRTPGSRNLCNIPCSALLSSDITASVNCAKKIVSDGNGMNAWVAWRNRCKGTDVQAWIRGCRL
Experimental: as §1, §2

[19] = target: T8, Serum albumin (h) (human); test: as above
T8 construct: '(h)' on the sheet read as human
T8 sequence (P02768 25-609): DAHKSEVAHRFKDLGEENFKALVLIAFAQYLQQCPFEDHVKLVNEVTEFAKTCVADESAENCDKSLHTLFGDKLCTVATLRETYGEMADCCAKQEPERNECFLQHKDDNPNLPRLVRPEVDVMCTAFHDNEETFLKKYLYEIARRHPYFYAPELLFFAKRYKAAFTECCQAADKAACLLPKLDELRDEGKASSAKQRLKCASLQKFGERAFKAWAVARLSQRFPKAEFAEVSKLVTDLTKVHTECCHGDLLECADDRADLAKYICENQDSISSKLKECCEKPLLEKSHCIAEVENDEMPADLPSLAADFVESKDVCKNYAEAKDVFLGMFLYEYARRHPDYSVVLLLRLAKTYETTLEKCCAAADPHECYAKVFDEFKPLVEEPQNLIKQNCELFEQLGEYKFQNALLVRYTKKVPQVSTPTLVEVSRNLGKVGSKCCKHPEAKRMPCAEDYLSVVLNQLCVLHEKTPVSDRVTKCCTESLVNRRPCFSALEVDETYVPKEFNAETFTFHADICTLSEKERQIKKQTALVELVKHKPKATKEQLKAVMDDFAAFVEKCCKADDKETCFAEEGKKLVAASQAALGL
Experimental: as §1, §2

[20] = target: T9, Cell surface rec. 3_Fc (h); test: as above
T9 construct: identity not disclosed
Experimental: as §1, §2

[21] = target: Trypsin inhibitor; test: as above
Experimental: as §1, §2

[22] = target: Pepsinogen; test: as above
Experimental: as §1, §2

[23] = target: RNase A; test: as above
Chain of RNase A (P61823 27-150): as the sequence (P61823 27-150) above
Experimental: as §1, §2

[24] = target: Cytochrome C; test: as above
Experimental: as §1, §2

[25] = target: T10, Fc (h); test: as above
T10 construct: '(h)' on the sheet read as human
Experimental: as §1, §2

Binder	IgG concentration for 50% inhibition of CD11b upregulation, granulocytes, 15 nM human C5a [1]	IgG concentration for 50% inhibition of CD11b upregulation, granulocytes, 150 nM human C5a [1]	EC50 [2]	binding result [3]	binding result [4]	binding result [5]	binding ratio (signal / signal of MOR03207) [6]	binding ratio (signal / signal of MOR03207) [7]	binding ratio (signal / signal of MOR03207) [8]	binding ratio (signal / signal of MOR03207) [9]	binding ratio (signal / signal of MOR03207) [10]	binding ratio (signal / signal of MOR03207) [11]	binding ratio (signal / signal of MOR03207) [12]	binding ratio (signal / signal of MOR03207) [13]	binding ratio (signal / signal of MOR03207) [14]	binding ratio (signal / signal of MOR03207) [15]	binding ratio (signal / signal of MOR03207) [16]	binding ratio (signal / signal of MOR03207) [17]	binding ratio (signal / signal of MOR03207) [18]	binding ratio (signal / signal of MOR03207) [19]	further results
B1	17 nM	114 nM	3.8 nM	no binding	no binding	no binding (tested: 300 nM)	1	1	4	1	1	1	2	1	1	1	46	1	1	1	binding ratio (signal / signal of MOR03207) [20]: 2; binding ratio (signal / signal of MOR03207) [21]: 3; binding ratio (signal / signal of MOR03207) [22]: 1; binding ratio (signal / signal of MOR03207) [23]: 2; binding ratio (signal / signal of MOR03207) [24]: 1; binding ratio (signal / signal of MOR03207) [25]: 1
B2	12 nM	42 nM	4.5 nM	no binding	no binding	no binding (tested: 300 nM)	1	1	8	1	1	1	1	1	1	1	82	1	1	2	binding ratio (signal / signal of MOR03207) [20]: 2; binding ratio (signal / signal of MOR03207) [21]: 2; binding ratio (signal / signal of MOR03207) [22]: 1; binding ratio (signal / signal of MOR03207) [23]: 2; binding ratio (signal / signal of MOR03207) [24]: 1; binding ratio (signal / signal of MOR03207) [25]: 1
